The results in this text go back to patent publication US20120190612A1, “METHODS OF TREATMENT” (CRC FOR ASTHMA AND AIRWAYS LTD., priority 2009, published 2012).

For data set [1], the system named is human primary lymphatic endothelial cells (HMVEC-LLy cells). Kind of data set: MTT cell viability assay, lymphatic endothelial cells. Format: cell-based. The protocol:
To determine the function of lamstatin, human primary lymphatic endothelial cells (HMVEC-LLy cells) were exposed to various concentrations of lamstatin and an MTT assay was performed. As a comparison, commercially available tumstatin was used. Specifically, to assess cell viability 4×10^3 HMVEC-LLy cells were seeded per well in 100 μl complete EBM-2 media (with bullet kit, Lonza) and incubated for 2 hrs at 37° C., 5% CO2. After this period lamstatin, tumstatin and respective vehicles (1 nM EDTA, pH 3.0) were prepared in complete EBM-2 as serial dilutions in a separate plate and added. […] After 6 h of further incubation cells were lysed overnight with 10% SDS/0.01 M HCl and measured the following day in a plate reader at 570 nm.
The MTT assay was performed as described above.

The test system of data set [2] is fibroblasts (3567). Nature of the data set: MTT cell viability assay, fibroblasts. Format: cell-based. To be noted: increasing concentrations, 72 hrs.
Data set [3] concerns epithelial cells (A549). Nature of the data set: MTT cell viability assay, epithelial cells. Format: cell-based. The note with it: increasing concentrations, 72 hrs.
For data set [4], the system named is HMVEC-LLy cells. Kind of data set: Tube formation on Matrigel. Format: cell-based, human. To be noted: 24 hrs, n=2. As to the method:
(§1) To assess formation of tubular structures, 48 well plates were coated with 130 μL Matrigel® (BD Bioscience), which was solidified at 37° C. over 45 min. 2×10^4 HMVEC-LLy cells in complete EBM-2 (500 μL) were seeded per well and allowed to attach for 30 min, before lamstatin, tumstatin, CP17 or vehicle was added to the wells. Photos were taken with a Kodak Digital Camera every 2 hrs. Tube formation peaked at 24 hrs, at which time tubular structures were further analysed to determine length (in pixels) and number of tubes per high power field (HPF) area (px^2). The HPF was divided in nine regions of equal size and tubes per region were counted. Mean and SEM were calculated and plotted.

Data set [5] concerns the target T1, integrin α5 (Homo sapiens, UniProt P05556+P08648).
T1 construct: endogenous in cells; host or cells: HMVEC-LLy (human primary lymphatic endothelial cells)
Kind of data set: Integrin binding of HMVEC-LLy cells on antibody-coated plates. Format: cell-based. The note with it: lamstatin 10 μg/ml, CP17 5 μM, 1 h. As to the method: (§2) Antibodies for integrin α5 (MAB1956Z; MAB1953Z), integrin β1 (MAB2253Z) and integrin β3 (MAB1957Z) (all Millipore, USA) were coated to 96 well tissue culture plates (Nunc, USA) at a concentration of 10 μg/mL overnight at 4° C. in sterile coating buffer (50 mM Na2CO3, 50 mM NaHCO3, pH 9.6). Plates then were blocked with sterile 1% BSA/PBS for 1 h at 37° C. and washed twice with EBM-2 MV (Lonza, Basel, Switzerland). MMVEC-LLy cells were carefully removed from culture flasks with non-enzymatic detachment solution (Trevigen, Md., USA) and washed twice with EBM-2 (Lonza, Basel, Switzerland). Volume was adjusted to a cell concentration of 50,000 cells/100 μL and divided into aliquots for treatment with recombinant lamstatin (10 μg/ml), CP17 (5 μM) or vehicle (1 nM EDTA, pH 3.5) only. Cells were then transferred to the antibody-coated plates and incubated for 1 h at 37° C. Wells were then washed with HANKS twice to remove unbound cells and fixed with 4% paraformaldehyde (in PBS) for 15 min at room temperature. Wells thereafter were photographed with an Olypmus CAMEDIA C-4000 camera mounted to an Olympus CK2 microscope. Pictures were divided into 25 segments and cells of 5 center-near quadrants were counted and averaged. […] Using a similar approach, the inventors observed no expression of integrin α4 on the surface of HMVEC-LLy cells (data not shown).

Data set [6] concerns the target T2, integrin β1 (Homo sapiens, UniProt P05556+P08648).
T2 construct: endogenous in cells; host or cells: HMVEC-LLy (human primary lymphatic endothelial cells)
The data set is described as above. Format: cell-based. The note with it: lamstatin 10 μg/ml, CP17 5 μM, 1 h. As to the method: as §2

In data set [7] the target is T3, integrin β3 (Homo sapiens, UniProt P05106).
T3 construct: endogenous in cells; host or cells: HMVEC-LLy (human primary lymphatic endothelial cells)
The description is as above. Format: cell-based. The note with it: lamstatin 10 μg/ml, CP17 5 μM, 1 h. The protocol:
as §2

The target of data set [8] is T4, integrins α5 and β1 (Homo sapiens, UniProt P05556+P08648).
T4 construct: endogenous in cells; host or cells: HMVEC-LLy (human primary lymphatic endothelial cells)
Nature of the data set: Integrins mediating binding of lymphatic endothelial cells (data not shown). The note with it: HMVEC-LLy in vitro, different from HUVECs. Format: cell-based.

Data set [9] has as its system outer nodule cells (LAM). Kind of data set: Tube formation of LAM outer nodule cells. Format: cell-based. To be noted: 5 hrs. The protocol: as §1
The inventors then analysed tube formation in LAM nodule cells and found only the outer nodule cells responded with pseudo-tube formation. Assay for tube formation was performed as described above in Example 2. Photos were taken at 2, 3, 4, 5 and 24 hrs after seeding. Lamstatin was added directly after seeding to inhibit prior tube formation. Tube formation peaked at 5 hrs and after 24 hrs no tubular structures were observed (both treated and untreated) (data not shown).

Data set [10] concerns lymphatic endothelial cells.
Experimental: The MTT assay was performed as described above. […] To differentiate between antiproliferative and cytotoxic effects, cells were counted 72 hrs after treatment with various concentrations of lamstatin.

T2 sequence (P05556 21-798): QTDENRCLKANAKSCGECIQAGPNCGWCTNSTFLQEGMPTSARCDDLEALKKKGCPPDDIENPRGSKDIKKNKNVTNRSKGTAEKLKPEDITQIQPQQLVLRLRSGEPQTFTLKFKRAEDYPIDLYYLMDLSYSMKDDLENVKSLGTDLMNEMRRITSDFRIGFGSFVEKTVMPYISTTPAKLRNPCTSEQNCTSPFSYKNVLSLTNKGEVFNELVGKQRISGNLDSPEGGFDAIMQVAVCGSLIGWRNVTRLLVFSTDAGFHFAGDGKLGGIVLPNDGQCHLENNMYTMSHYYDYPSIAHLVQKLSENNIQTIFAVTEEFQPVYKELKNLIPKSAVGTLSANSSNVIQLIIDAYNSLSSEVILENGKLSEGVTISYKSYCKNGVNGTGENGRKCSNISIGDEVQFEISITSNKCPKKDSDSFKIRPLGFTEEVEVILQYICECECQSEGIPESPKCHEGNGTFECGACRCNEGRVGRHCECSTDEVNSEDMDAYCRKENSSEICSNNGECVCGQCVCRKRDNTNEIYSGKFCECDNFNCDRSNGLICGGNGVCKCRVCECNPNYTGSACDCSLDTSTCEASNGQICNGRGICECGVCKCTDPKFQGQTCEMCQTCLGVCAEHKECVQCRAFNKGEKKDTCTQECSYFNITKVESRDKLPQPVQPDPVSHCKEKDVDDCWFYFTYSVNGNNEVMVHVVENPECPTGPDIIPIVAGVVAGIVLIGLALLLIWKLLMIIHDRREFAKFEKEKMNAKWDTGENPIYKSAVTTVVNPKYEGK
T2 sequence (P08648 42-894 limits assumed): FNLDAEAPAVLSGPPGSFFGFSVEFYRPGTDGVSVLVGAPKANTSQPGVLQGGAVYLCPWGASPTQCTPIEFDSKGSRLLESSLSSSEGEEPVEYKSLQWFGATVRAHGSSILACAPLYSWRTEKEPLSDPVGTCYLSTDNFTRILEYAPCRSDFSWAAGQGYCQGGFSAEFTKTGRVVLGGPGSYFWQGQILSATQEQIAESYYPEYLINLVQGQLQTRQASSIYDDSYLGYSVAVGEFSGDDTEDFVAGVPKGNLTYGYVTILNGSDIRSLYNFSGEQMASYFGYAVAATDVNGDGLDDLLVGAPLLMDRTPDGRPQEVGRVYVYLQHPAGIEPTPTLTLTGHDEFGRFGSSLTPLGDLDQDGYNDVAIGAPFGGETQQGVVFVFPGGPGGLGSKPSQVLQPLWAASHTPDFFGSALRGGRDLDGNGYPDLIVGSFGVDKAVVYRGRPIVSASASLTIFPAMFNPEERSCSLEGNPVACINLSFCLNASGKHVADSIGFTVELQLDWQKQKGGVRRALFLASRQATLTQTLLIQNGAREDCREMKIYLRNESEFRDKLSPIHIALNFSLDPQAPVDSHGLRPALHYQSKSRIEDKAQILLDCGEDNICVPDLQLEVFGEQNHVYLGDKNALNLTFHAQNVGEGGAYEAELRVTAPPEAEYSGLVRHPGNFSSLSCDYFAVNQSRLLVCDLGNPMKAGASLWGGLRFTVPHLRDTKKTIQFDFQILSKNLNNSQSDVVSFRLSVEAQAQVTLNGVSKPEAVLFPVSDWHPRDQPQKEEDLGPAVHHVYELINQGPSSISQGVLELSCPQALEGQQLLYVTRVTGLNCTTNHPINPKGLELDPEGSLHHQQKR
T2 sequence (P08648 895-1049 limits assumed): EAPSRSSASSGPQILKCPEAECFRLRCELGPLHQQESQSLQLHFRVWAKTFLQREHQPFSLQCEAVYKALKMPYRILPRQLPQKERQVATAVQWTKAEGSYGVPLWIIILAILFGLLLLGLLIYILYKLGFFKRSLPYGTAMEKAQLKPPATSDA
T3 sequence (P05106 27-788): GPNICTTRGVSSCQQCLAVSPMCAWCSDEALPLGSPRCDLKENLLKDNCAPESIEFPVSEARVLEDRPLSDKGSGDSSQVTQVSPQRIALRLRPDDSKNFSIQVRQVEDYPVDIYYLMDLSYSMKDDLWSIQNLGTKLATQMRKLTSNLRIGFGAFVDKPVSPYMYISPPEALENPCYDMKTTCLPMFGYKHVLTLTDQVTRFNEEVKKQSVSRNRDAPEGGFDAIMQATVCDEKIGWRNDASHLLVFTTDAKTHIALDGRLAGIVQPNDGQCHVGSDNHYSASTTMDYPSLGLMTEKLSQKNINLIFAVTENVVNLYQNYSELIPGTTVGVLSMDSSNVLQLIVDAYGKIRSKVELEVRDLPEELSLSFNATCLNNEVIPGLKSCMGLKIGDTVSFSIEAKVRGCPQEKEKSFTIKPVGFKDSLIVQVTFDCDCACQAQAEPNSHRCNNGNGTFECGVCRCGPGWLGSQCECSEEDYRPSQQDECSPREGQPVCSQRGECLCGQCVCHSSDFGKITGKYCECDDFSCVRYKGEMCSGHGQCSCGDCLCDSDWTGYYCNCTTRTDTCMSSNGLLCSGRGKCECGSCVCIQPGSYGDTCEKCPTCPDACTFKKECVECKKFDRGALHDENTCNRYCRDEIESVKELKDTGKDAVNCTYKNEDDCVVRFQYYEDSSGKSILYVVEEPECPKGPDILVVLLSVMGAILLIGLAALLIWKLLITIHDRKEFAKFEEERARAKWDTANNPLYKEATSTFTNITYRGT
T3 sequence (P06756 31-889 limits assumed, further chain): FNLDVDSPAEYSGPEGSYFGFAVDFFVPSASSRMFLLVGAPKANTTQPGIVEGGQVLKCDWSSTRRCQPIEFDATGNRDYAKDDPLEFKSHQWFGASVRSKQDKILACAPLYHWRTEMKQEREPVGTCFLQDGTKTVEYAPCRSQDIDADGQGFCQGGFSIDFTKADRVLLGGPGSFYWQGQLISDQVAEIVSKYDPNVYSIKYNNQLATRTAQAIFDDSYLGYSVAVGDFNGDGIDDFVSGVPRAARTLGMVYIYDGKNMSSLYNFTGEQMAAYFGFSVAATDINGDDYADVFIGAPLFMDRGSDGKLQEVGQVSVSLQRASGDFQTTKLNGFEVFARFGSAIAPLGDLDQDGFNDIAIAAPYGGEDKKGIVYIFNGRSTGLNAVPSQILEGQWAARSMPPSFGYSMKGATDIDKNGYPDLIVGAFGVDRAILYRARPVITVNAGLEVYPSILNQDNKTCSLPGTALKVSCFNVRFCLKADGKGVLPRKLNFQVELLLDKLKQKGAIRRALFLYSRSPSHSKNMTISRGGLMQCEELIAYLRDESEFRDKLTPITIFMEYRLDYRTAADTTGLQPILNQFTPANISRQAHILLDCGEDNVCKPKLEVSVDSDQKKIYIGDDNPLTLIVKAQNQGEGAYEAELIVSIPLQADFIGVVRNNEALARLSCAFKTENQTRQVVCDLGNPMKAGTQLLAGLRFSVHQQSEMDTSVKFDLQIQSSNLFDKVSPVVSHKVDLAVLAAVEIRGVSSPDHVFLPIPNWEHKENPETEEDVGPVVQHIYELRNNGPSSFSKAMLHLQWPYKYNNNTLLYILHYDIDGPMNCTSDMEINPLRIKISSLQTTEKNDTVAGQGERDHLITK
T3 sequence (P06756 891-1048 limits assumed, further chain): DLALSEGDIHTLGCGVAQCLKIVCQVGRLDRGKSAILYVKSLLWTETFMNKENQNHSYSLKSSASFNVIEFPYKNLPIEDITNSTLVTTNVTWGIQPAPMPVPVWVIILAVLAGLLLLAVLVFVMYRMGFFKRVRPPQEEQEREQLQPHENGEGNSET
T1 sequence (P08648 42-894 limits assumed): as the sequence (P08648 42-894 limits assumed) above
T1 sequence (P08648 895-1049 limits assumed): as the sequence (P08648 895-1049 limits assumed) above
T1 sequence (P05556 21-798): as the sequence (P05556 21-798) above

B1: lamstatin: NC1 domain of the α5 chain of collagen type IV; human amino acid sequence SEQ ID NO:1; recombinant (protein, listed as Homo sapiens)
chain: GFLITRHSQTTDAPQCPQGTLQVYEGFSLLYVQGNKRAHGQDLGTAGSCLRRFSTMPFMFCNINNVCNFASRNDYSYWLSTPEPMPMSMQPLKGQSIQPFISRCAVCEAPAVVIAVHSQTIQIPHCPQGWDSLWIGYSFMMHTSAGAEGSGQALASPGSCLEEFRSAPFIECHGRGTCNYYANSYSFWLATVDVSDMFSKPQSETLKAGDLRTRISRCQVCMKRT
Turning to B1, the “cell viability (MTT)” value in [1] (24 hrs, data not shown) was “reduced cell viability”; in data set [1] (increasing concentrations, 72 hrs) it was “decreased cell viability”; in data set [2], “only lymphatic endothelial cells responded”; in data set [3] it was “only lymphatic endothelial cells responded”. Moreover, in data set [4], the “numbers of tube-like structures formed” value is recorded as “reduce in a concentration related manner”. Also, in [5], the “cell binding in presence of monoclonal antibody against integrin α5” value is reported as “significantly inhibited cell binding”. In addition, the “cell binding in presence of monoclonal antibody against integrin β1” value in [6] is listed as “significantly inhibited cell binding”. The “cell binding in presence of monoclonal antibody against integrin β3” value in [7] is recorded as “no effect on binding”. Further, the “predominant integrins that mediate the binding of lymphatic endothelial cells” value in [8] is “integrins α5 and β1”. In data set [9], the tube length entry is on record as “significantly inhibited”. For the same molecule, in [9], the “tube number (tubes per square pixel)” value is on record as “significantly inhibited”. For the same molecule, the “viable cells (trypan blue exclusion)” value in data set [10] is listed as “no cytotoxic effect”. Also, in data set [10] (10 μg/mL, 72 hrs after treatment, data not shown), the cell count result is “anti-proliferative effect was observed”.
